# According to patent US6391608:
# Tested on: PleI restriction endonuclease (Pseudomonas lemoignei)
# Assay: cleavage_in_vitro
# Details: approximate yield of recombinant PleI; five of six clones active; recognition site not given
substance,measurement,value
DNA substrate with PleI sites (sequence not stated),activity (units/gram of cells),100000
